# Laboratory results reported in IntAct's records for PubMed 31515488.
# B1: Notch homolog 2 N-terminal-like protein A (Homo sapiens), Q7Z3S9 (parent)
# chain: MCVTYHNGTGYCKCPEGFLGEYCQHRDPCEKNRCQNGGTCVAQAMLGKATCRCASGFTGEDCQYSTSHPCFVSRPCLNGGTCHMLSRDTYECTCQVGFTGKECQWTDACLSHPCANGSTCTTVANQFSCKCLTGFTGQKCETDVNECDIPGHCQHGGTCLNLPGSYQCQCLQGFTGQYCDSLYVPCAPSPCVNGGTCRQTGDFTFECNCLPETVRRGTELWERDREVWNGKEHDEN
# partner: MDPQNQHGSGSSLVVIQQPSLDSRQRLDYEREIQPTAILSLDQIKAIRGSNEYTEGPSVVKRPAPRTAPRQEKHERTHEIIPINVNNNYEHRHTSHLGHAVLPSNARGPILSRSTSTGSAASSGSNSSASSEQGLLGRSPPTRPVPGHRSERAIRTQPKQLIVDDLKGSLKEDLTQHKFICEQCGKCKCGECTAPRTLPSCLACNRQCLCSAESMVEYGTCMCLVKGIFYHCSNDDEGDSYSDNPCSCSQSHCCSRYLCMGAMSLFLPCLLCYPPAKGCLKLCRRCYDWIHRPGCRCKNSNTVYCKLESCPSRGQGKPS
# B2: 14-3-3 protein theta (Homo sapiens), P27348 (parent)
# chain: MEKTELIQKAKLAEQAERYDDMATCMKAVTEQGAELSNEERNLLSVAYKNVVGGRRSAWRVISSIEQKTDTSDKKLQLIKDYREKVESELRSICTTVLELLDKYLIANATNPESKVFYLKMKGDYFRYLAEVACGDDRKQTIDNSQGAYQEAFDISKKEMQPTHPIRLGLALNFSVFYYEILNNPELACTLAKTAFDEAIAELDTLNEDSYKDSTLIMQLLRDNLTLWTSDSAGEECDAAEGAEN
# B3: Pre-mRNA-splicing factor SPF27 (Homo sapiens), O75934 (parent)
# chain: MAGTGLVAGEVVVDALPYFDQGYEAPGVREAAAALVEEETRRYRPTKNYLSYLTAPDYSAFETDIMRNEFERLAARQPIELLSMKRYELPAPSSGQKNDITAWQECVNNSMAQLEHQAVRIENLELMSQHGCNAWKVYNENLVHMIEHAQKELQKLRKHIQDLNWQRKNMQLTAGSKLREMESNWVSLVSKNYEIERTIVQLENEIYQIKQQHGEANKENIRQDF
# partner: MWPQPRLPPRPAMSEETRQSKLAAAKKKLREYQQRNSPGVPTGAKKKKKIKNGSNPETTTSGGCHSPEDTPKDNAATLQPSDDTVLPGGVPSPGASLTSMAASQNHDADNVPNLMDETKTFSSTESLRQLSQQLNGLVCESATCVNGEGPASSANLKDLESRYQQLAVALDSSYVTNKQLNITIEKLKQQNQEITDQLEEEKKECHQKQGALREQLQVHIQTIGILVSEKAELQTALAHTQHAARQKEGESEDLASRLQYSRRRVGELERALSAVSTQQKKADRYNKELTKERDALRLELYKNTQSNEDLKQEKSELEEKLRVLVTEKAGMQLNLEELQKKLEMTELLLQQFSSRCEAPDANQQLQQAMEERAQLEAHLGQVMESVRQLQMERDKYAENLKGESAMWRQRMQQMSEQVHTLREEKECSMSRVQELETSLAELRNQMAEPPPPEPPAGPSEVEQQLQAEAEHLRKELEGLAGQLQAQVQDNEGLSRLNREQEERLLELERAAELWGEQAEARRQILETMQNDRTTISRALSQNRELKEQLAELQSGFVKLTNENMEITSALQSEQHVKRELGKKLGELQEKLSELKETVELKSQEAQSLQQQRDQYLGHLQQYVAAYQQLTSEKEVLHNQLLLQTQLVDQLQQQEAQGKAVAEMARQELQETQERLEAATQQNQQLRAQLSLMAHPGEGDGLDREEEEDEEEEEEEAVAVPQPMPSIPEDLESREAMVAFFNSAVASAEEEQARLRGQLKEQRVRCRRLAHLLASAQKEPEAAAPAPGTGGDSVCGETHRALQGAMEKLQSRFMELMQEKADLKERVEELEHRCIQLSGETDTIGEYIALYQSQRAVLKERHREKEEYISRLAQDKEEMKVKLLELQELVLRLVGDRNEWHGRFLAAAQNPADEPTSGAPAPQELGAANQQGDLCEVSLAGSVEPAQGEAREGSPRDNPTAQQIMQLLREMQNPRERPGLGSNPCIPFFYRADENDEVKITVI
# B4: Zinc finger protein Aiolos (Homo sapiens), Q9UKT9 (parent)
# chain: MEDIQTNAELKSTQEQSVPAESAAVLNDYSLTKSHEMENVDSGEGPANEDEDIGDDSMKVKDEYSERDENVLKSEPMGNAEEPEIPYSYSREYNEYENIKLERHVVSFDSSRPTSGKMNCDVCGLSCISFNVLMVHKRSHTGERPFQCNQCGASFTQKGNLLRHIKLHTGEKPFKCHLCNYACQRRDALTGHLRTHSVEKPYKCEFCGRSYKQRSSLEEHKERCRTFLQSTDPGDTASAEARHIKAEMGSERALVLDRLASNVAKRKSSMPQKFIGEKRHCFDVNYNSSYMYEKESELIQTRMMDQAINNAISYLGAEALRPLVQTPPAPTSEMVPVISSMYPIALTRAEMSNGAPQELEKKSIHLPEKSVPSERGLSPNNSGHDSTDTDSNHEERQNHIYQQNHMVLSRARNGMPLLKEVPRSYELLKPPPICPRDSVKVINKEGEVMDVYRCDHCRVLFLDYVMFTIHMGCHGFRDPFECNMCGYRSHDRYEFSSHIARGEHRALLK
# partner: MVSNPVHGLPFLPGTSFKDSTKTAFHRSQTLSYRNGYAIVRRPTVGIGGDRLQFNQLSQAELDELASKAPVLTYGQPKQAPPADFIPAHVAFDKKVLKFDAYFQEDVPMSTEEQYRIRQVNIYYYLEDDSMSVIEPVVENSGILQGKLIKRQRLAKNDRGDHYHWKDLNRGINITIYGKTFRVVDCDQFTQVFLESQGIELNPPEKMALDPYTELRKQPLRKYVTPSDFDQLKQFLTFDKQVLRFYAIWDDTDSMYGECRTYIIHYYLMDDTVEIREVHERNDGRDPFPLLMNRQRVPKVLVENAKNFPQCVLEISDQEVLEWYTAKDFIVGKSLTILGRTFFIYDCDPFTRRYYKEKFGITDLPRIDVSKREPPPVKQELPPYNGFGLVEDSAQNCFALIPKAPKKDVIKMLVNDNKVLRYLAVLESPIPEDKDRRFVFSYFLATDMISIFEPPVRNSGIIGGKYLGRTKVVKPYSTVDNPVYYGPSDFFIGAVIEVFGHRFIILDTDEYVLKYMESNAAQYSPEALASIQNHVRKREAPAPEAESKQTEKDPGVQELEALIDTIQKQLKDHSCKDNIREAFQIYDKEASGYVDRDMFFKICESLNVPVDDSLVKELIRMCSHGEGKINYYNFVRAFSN
# B5: Serine/threonine-protein kinase PAK 5 (Homo sapiens), Q9P286 (parent)
# chain: MFGKKKKKIEISGPSNFEHRVHTGFDPQEQKFTGLPQQWHSLLADTANRPKPMVDPSCITPIQLAPMKTIVRGNKPCKETSINGLLEDFDNISVTRSNSLRKESPPTPDQGASSHGPGHAEENGFITFSQYSSESDTTADYTTEKYREKSLYGDDLDPYYRGSHAAKQNGHVMKMKHGEAYYSEVKPLKSDFARFSADYHSHLDSLSKPSEYSDLKWEYQRASSSSPLDYSFQFTPSRTAGTSGCSKESLAYSESEWGPSLDDYDRRPKSSYLNQTSPQPTMRQRSRSGSGLQEPMMPFGASAFKTHPQGHSYNSYTYPRLSEPTMCIPKVDYDRAQMVLSPPLSGSDTYPRGPAKLPQSQSKSGYSSSSHQYPSGYHKATLYHHPSLQSSSQYISTASYLSSLSLSSSTYPPPSWGSSSDQQPSRVSHEQFRAALQLVVSPGDPREYLANFIKIGEGSTGIVCIATEKHTGKQVAVKKMDLRKQQRRELLFNEVVIMRDYHHDNVVDMYSSYLVGDELWVVMEFLEGGALTDIVTHTRMNEEQIATVCLSVLRALSYLHNQGVIHRDIKSDSILLTSDGRIKLSDFGFCAQVSKEVPKRKSLVGTPYWMAPEVISRLPYGTEVDIWSLGIMVIEMIDGEPPYFNEPPLQAMRRIRDSLPPRVKDLHKVSSVLRGFLDLMLVREPSQRATAQELLGHPFLKLAGPPSCIVPLMRQYRHH
# partner: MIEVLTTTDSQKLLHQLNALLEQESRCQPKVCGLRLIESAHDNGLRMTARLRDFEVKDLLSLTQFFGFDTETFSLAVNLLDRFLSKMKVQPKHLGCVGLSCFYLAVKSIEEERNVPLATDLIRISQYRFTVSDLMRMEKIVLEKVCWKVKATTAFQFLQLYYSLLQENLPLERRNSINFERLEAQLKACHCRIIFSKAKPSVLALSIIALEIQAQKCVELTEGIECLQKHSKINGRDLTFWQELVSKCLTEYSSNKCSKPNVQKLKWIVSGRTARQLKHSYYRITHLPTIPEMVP
# B6: Ribosome quality control complex subunit TCF25 (Homo sapiens), Q9BQ70 (parent)
# chain: MSRRALRRLRGEQRGQEPLGPGALHFDLRDDDDAEEEGPKRELGVRRPGGAGKEGVRVNNRFELINIDDLEDDPVVNGERSGCALTDAVAPGNKGRGQRGNTESKTDGDDTETVPSEQSHASGKLRKKKKKQKNKKSSTGEASENGLEDIDRILERIEDSTGLNRPGPAPLSSRKHVLYVEHRHLNPDTELKRYFGARAILGEQRPRQRQRVYPKCTWLTTPKSTWPRYSKPGLSMRLLESKKGLSFFAFEHSEEYQQAQHKFLVAVESMEPNNIVVLLQTSPYHVDSLLQLSDACRFQEDQEMARDLVERALYSMECAFHPLFSLTSGACRLDYRRPENRSFYLALYKQMSFLEKRGCPRTALEYCKLILSLEPDEDPLCMLLLIDHLALRARNYEYLIRLFQEWEAHRNLSQLPNFAFSVPLAYFLLSQQTDLPECEQSSARQKASLLIQQALTMFPGVLLPLLESCSVRPDASVSSHRFFGPNAEISQPPALSQLVNLYLGRSHFLWKEPATMSWLEENVHEVLQAVDAGDPAVEACENRRKVLYQRAPRNIHRHVILSEIKEAVAALPPDVTTQSVMGFDPLPPSDTIYSYVRPERLSPISHGNTIALFFRSLLPNYTMEGERPEEGVAGGLNRNQGLNRLMLAVRDMMANFHLNDLEAPHEDDAEGEGEWD
# partner: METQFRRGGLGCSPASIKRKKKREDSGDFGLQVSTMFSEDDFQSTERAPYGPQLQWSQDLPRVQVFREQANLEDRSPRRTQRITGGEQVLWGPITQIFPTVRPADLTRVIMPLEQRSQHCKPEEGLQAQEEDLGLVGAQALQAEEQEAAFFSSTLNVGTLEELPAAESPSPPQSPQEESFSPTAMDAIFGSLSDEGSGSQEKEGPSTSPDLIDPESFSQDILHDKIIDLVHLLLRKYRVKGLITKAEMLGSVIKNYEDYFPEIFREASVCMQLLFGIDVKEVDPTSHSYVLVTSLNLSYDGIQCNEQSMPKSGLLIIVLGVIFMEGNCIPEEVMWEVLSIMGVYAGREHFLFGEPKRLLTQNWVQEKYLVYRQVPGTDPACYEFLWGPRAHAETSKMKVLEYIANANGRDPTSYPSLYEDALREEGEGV
# B7: Protein FAM9B (Homo sapiens), Q8IZU0 (parent)
# chain: MAAWGKKHAGKDPVRDECEERNRFTETREEDVTDEHGEREPFAETDEHTGANTKKPEDTAEDLTAKRKRMKMDKTCSKTKNKSKHALRKKQLKRQKRDYIHSLKLLNVLEEYITDEQKEEEEEEGEEEELIRIFQEQQKKWQQYRSVRRERLKEMKLLRDQFVKALEDFEDLCDRVFSDEDSELDN
# partner: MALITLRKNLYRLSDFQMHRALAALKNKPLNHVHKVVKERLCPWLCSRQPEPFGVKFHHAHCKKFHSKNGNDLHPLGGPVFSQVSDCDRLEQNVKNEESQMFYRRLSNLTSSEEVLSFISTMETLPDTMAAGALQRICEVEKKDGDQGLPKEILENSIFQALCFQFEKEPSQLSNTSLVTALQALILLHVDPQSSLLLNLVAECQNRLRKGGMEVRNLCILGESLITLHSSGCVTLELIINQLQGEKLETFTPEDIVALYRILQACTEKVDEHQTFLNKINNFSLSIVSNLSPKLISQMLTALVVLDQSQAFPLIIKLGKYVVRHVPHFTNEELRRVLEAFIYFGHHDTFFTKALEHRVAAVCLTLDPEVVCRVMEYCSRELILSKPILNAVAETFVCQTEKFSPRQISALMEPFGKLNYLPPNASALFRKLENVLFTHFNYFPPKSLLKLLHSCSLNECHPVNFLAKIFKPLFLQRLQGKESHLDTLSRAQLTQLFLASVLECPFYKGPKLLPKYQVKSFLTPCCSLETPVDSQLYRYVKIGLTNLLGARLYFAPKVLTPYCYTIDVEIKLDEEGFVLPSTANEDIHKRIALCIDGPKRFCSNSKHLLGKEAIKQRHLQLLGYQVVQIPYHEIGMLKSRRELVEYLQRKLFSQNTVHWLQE
# Variants of: B1
# Details: with spy1_human SPRY1, O43609
row,effect of a mutation on the interaction,Variant
1,with no effect,A115T
2,with no effect,R74Q

# Variants of: B2
# Details: with tri42_human TRIM42, Q8IWZ5
# tri42_human TRIM42, Q8IWZ5, sequence (Q8IWZ5 whole entry): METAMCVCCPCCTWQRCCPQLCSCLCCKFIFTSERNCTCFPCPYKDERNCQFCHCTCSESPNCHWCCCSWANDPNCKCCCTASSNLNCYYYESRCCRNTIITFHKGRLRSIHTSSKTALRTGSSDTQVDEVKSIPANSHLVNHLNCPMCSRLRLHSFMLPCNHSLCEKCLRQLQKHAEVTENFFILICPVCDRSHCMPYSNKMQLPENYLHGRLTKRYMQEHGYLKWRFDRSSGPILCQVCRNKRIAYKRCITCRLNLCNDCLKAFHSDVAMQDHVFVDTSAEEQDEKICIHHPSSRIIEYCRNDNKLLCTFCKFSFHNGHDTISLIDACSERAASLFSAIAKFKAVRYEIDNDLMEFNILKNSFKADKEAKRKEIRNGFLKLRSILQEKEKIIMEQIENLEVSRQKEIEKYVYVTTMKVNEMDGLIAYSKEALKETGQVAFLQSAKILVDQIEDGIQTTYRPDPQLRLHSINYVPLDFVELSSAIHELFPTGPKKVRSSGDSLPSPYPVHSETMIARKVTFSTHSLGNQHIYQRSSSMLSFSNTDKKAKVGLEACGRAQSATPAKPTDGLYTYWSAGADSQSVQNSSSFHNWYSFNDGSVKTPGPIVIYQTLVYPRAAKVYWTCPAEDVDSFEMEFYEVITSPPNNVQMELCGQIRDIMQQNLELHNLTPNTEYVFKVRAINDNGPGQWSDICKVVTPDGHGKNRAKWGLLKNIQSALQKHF
row,effect of a mutation on the interaction,Variant
1,with no effect,A152S

# Variants of: B3
# Details: with goga2_human GOLGA2, Q08379
row,effect of a mutation on the interaction,Variant
1,disrupting interaction strength,N139S

# Variants of: B4
# Details: with efhc1_human EFHC1, Q5JVL4
row,effect of a mutation on the interaction,Variant
1,with no effect,N119D
2,with no effect,A24V

# Variants of: B5
# Details: with ccng1_human CCNG1, P51959
row,effect of a mutation on the interaction,Variant
1,with no effect,R335P
2,with no effect,S511N
3,with no effect,V604I

# Variants of: B6
# Details: with magab_human MAGEA11, P43364
row,effect of a mutation on the interaction,Variant
1,with no effect,V526A

# Variants of: B7
# Details: with fakd3_human FASTKD3, Q14CZ7
row,effect of a mutation on the interaction,Variant
1,with no effect,R23H
